Test results: publication PMC8358895 (Cell reports, 2021)

Target: MBP-PLK1 (UniProt P53350 1-603)
Assay: pull-down

Sequence of MBP-PLK1 (P53350 whole entry): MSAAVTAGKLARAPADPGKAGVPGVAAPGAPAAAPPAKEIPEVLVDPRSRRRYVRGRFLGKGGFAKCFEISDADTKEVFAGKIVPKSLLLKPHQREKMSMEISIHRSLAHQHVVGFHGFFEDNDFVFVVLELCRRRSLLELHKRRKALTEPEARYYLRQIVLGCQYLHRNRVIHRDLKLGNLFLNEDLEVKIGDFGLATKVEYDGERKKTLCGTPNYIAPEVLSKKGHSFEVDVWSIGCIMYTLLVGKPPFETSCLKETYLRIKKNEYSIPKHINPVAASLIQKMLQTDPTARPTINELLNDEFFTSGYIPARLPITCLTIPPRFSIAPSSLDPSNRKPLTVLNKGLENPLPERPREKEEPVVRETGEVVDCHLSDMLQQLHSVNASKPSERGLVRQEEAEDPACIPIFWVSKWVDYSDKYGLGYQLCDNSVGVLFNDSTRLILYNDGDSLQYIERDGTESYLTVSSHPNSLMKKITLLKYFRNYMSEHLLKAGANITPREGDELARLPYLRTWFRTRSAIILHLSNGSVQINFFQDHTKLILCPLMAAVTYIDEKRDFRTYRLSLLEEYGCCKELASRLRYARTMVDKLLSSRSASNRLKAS

B1: GST-Apolo1-N (domain or fragment)
chain: MFLPHMNHLTLEQTFFSQVLPKTVKLFDDMMYELTSQARGLSSQNLEIQTTLRNILQTMVQLLGALTGCVQHICATQESIILENIQSLPSSVLHIIKSTFVHCKNSESVYSGCLHLVSDLLQALFKEAYSLQKQLMELLDMVCMDPLVDDNDDILNMVIVIHSLLDICSVISSMDH
- binding result: binds
